Consider 1 molecule from patent US12060433B2, “CD73 inhibitor and A2A/A2B adenosine receptor inhibitor combination therapy” (Incyte Corporation, priority 2020, dated 2024).

In assay [1] the target is T1, cell surface CD73 on MDA-MB-231 cells (Homo sapiens, UniProt P21589).
T1 construct: endogenous in cells; host or cells: MDA-MB-231
T1 sequence (P21589 27-549): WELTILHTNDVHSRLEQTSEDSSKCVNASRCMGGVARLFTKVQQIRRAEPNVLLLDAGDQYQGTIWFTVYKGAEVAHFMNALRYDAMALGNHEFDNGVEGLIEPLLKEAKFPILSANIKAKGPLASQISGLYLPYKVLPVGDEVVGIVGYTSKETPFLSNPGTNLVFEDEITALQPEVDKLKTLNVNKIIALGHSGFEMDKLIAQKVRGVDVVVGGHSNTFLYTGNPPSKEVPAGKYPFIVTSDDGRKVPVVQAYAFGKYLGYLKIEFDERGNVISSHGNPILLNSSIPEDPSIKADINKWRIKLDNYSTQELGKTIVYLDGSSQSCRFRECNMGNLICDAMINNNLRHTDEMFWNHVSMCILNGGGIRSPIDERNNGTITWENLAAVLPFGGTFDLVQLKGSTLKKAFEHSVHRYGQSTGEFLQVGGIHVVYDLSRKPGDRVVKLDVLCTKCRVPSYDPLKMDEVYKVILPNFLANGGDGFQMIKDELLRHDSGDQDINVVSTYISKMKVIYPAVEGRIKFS
Kind of assay: Binding to cell surface CD73 by flow cytometry (GMFI), MDA-MB-231 cells. The class given is cell-based. Particulars: high levels of surface CD73. As to the method: To test the binding of humanized and non-humanized CL25 clones to cell surface CD73, MDA-MB-231 or A375 cells were washed and added to 96-well plates at 5×10^4 cells/well. The cells were stained with the indicated concentration of antibodies for 30 minutes on ice (FIG. 2A and FIG. 2B). Next, the cells were washed and stained using goat anti-mouse secondary conjugated to phycoerythrin (PE) for 30 minutes on ice. The cells were then washed and analyzed by flow cytometry. Geometric mean fluorescence intensity (GMFI) of CD73 staining was graphed (FIG. 2A and FIG. 2B).
Cells were stained with the indicated concentration of antibodies for 1 hour on ice. Cells were then washed and stained goat anti-mouse secondary conjugated to PE for 30 minute on ice. Cells were then washed and analyzed by flow cytometry. The GMFI of CD73 staining is graphed (FIG. 13).
(A flow cytometer gives signals particle by particle.)

Assay [2] concerns the target T2, CD73 on the cell surface of MDA-MB-231 cells (Homo sapiens, UniProt P21589).
T2 construct: endogenous in cells; host or cells: MDA-MB-231
T2 sequence (P21589 27-549): T1 sequence (P21589 27-549)
Kind of assay: CD73 cell surface levels after 24 hour antibody treatment. The assay is classed as cell-based. The conditions noted are these: 10 μg/mL antibody. On the procedure: Indicated antibodies were added at a final concentration of 10 μg/mL and plates were incubated at 37° C. 5% CO2 for 24 hours. Cells were recovered using Versene and transferred to new 96-well plates. Cells were washed and stained for 30 minutes on ice with 10 μg/mL of non-competing antibody directly conjugated to Dy650. Cells were washed and analyzed by flow cytometry. CD73 cell surface receptor density was determined by Antibody Binding Capacity (ABC) using Quantum Simply Cellular beads.

Assay [3] concerns the target T3, mouse CD73 (SEQ ID NO: 71) (Mus musculus, UniProt Q61503).
T3 construct: purchased BPS Bioscience
T3 sequence (Q61503 29-551): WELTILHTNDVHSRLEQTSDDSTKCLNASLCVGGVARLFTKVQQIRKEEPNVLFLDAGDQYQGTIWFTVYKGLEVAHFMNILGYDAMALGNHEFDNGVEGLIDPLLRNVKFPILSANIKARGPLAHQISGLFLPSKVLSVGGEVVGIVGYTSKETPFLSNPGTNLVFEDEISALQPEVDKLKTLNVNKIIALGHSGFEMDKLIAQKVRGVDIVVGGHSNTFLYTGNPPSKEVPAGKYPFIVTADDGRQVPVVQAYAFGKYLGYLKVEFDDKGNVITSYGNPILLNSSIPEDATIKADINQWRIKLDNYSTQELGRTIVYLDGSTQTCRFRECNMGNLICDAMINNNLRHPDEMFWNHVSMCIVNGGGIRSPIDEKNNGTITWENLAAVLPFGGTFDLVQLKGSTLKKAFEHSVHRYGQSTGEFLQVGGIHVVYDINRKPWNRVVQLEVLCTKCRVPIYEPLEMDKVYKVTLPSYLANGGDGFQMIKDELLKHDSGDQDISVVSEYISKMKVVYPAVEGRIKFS
Kind of assay: SPR (Biacore 8K) binding affinity and kinetics to mouse CD73. As to the method: The SPR running buffer (10 mM HEPES, 150 mM NaCl, 3 mM EDTA and 0.05% v/v Surfactant P20, pH 7.4) was prepared from 10×HBS-EP Buffer (GE Healthcare). Anti-human Fc antibodies (GE Healthcare) were immobilized via amine coupling on all sixteen flow cells of an S series sensor chip CM5 (GE Healthcare). The immobilization levels were ˜9000 RU for all flow cells. The desired capturing level of anti-CD73 antibody was achieved by flowing appropriate concentration of anti-CD73 antibody through the active flow cell of each channel. The non-cleavable ADP analogue APCP (adenosine-5′-(α,β-methylene) diphosphate) with the presence of Zn^2+ can be used to shift the CD73 conformational equilibrium from open towards closed. Therefore, recombinant CD73 was incubated with SPR running buffer in the presence of 100 μM APCP and 10 μM ZnCl2 (closed SPR running buffer) to study the binding of anti-CD73 antibody to the CD73 in the closed conformation. To achieve this, the ABA injection feature in Biacore 8K was used. For open conformation, the ABA injection sequence started with 60 seconds injection of running buffer. Then, CD73 3-fold serial dilution concentration series prepared from CD73 stock (BPS Bioscience) and running buffer were injected for 180 seconds immediately followed by running buffer for 240 seconds. […]
Background: In SPR one partner is held on a chip, and binding of the other changes the refractive index at the surface.

The test system of assay [4] is cynomolgus CD73 (SEQ ID NO: 72). Description: SPR (Biacore 8K) binding affinity and kinetics to cynomolgus CD73. As to the method:
The SPR running buffer (10 mM HEPES, 150 mM NaCl, 3 mM EDTA and 0.05% v/v Surfactant P20, pH 7.4) was prepared from 10×HBS-EP Buffer (GE Healthcare). Anti-human Fc antibodies (GE Healthcare) were immobilized via amine coupling on all sixteen flow cells of an S series sensor chip CM5 (GE Healthcare). The immobilization levels were ˜9000 RU for all flow cells. The desired capturing level of anti-CD73 antibody was achieved by flowing appropriate concentration of anti-CD73 antibody through the active flow cell of each channel. The non-cleavable ADP analogue APCP (adenosine-5′-(α,β-methylene) diphosphate) with the presence of Zn^2+ can be used to shift the CD73 conformational equilibrium from open towards closed. Therefore, recombinant CD73 was incubated with SPR running buffer in the presence of 100 μM APCP and 10 μM ZnCl2 (closed SPR running buffer) to study the binding of anti-CD73 antibody to the CD73 in the closed conformation. To achieve this, the ABA injection feature in Biacore 8K was used. For open conformation, the ABA injection sequence started with 60 seconds injection of running buffer. Then, CD73 3-fold serial dilution concentration series prepared from CD73 stock (BPS Bioscience) and running buffer were injected for 180 seconds immediately followed by running buffer for 240 seconds. For closed conformation, the normal SPR running buffer was replaced by closed SPR running buffer. Surface was regenerated with 30 seconds injection of 3 M MgCl2. […] Binding affinities and kinetic association and dissociation rate constants to human, cynomolgus, and mouse CD73 in either open or closed conformations are shown in Table 8 below. The results in Table 8 ensure cynomolgus pharmacokinetic data will reflect human pharmacokinetic data.
Binding affinities and kinetic association and dissociation rate constants to human, cynomolgus, and mouse CD73 in either open or closed conformations are shown in Table 9 below.

[5] abbreviates: cynomolgus CD73, closed conformation.

Sequence of cynomolgus CD73 (SEQ ID NO: 72) (as listed by the source): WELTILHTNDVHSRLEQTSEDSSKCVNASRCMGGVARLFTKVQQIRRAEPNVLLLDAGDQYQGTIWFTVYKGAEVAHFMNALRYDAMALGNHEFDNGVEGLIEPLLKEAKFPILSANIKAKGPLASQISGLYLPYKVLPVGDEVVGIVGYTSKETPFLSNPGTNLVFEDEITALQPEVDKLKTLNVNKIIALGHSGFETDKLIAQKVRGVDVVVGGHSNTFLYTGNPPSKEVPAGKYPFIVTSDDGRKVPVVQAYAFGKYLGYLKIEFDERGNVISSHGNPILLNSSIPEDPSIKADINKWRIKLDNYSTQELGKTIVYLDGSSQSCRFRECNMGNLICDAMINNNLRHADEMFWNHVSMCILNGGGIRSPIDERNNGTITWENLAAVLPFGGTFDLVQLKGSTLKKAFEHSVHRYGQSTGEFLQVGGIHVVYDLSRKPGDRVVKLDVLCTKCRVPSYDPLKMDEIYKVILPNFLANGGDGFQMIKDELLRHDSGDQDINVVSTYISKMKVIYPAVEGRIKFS

B1: CL25: chimeric anti-human CD73 monoclonal antibody, murine VH SEQ ID NO:26 and VL SEQ ID NO:27 with human IgG1 Fc (antibody, V domains shown)
VH: QVQLQQSGAELARPGASVKLSCRASGYTFTSYGLSWVKQRTGQGLEWIGEIYPGSGNTYYNEKFKGKATLTADKSSSTAYMELRSLTSEDSAVYFCARYDYLGSSYGFDYWGQGTTLTVSS
VL: DIVMTQSHKFMSTSVGDRVSITCKASQDVSTAVAWYQQKPGQSPKLLIYSASYRYNGVPDRFTGSGSGTDFTFTISSVQAEDLAVYYCQQHYNTPYTFGGGTKLEIK
modifications: human IgG1 Fc constant regions without entry
As for B1, the “cell binding (GMFI)” value in assay [1] was “high potency binding”. Also, the “level of CD73 on the cell surface” value in assay [2] is reported as “decreased the levels of cell surface CD73”. In addition, the KD result was “No Binding” in assay [3] (murine CD73, closed conformation (merged ka/kd/KD cell)) and “No Binding” in assay [3] (murine CD73, open conformation (merged ka/kd/KD cell where no binding)). In addition, the ka in assay [4] (setting [5]) is 936000 M⁻¹ s⁻¹. Also, the kd in assay [4] (setting [5]) stood at 0.000495 s⁻¹; in assay [4] (cynomolgus CD73, open conformation), 0.000658 s⁻¹.
